Laboratory results: patent US7026443

biological target: HLA-A*0301 (human); assay: competition with 125I-labelled standard peptide for purified HLA-A*0301, gel filtration; conditions: not given

Point of comparison: RLKAICIEK (modifications not checked) [HPV16 E1 109 …], binding affinity ratio (IC50 of standard peptide / IC50 of test peptide) 0.084. Against it:
- TAQEAKQHR (modifications not checked) [HPV16 E1 72 …] — lower, 0.0005
- SVICFVNSK (modifications not checked) [HPV16 E1 497 …] — lower, 0.0005
- SLFGMSLMK (modifications not checked) [HPV16 E1 484 …] — higher, 0.72

Point of comparison: AVCDKCLKF (modifications not checked), binding affinity ratio (IC50 of the standard peptide / IC50 of the test peptide) 0.0002. Against it:
- CMSCCRSSR (modifications not checked) [HPV16 E6 position 143 peptide …] — higher, 0.0033
- CCRSSRTRR (modifications not checked) [HPV16 E6 position 146 peptide …] — higher, 0.0003
- AVCDKCLKFY (modifications not checked) — higher, 0.0052
- AFRDLCIVY (modifications not checked) [HPV16 E6 position 53 peptide …] — higher, 0.0052
- AVCDKCLK (modifications not checked) [HPV16 E6 position 68 peptide AVCDKCLK] — higher, 0.0053

same assay, conditions: remark: other sources report otherwise

Point of comparison: IVYRDGNPY (modifications not checked) [… (HPV16 E6, position 59)], relative binding ratio (IC50 of standard peptide / IC50 of test peptide) (ratio to standard peptide) 0.15. Against it:
- HLDKKQRFH (modifications not checked) [… (HPV16 E6, position 125)] — lower, 0.0009

AMFQDPQER (modifications not checked) [HPV16 E6 position 7 peptide …] showed a binding affinity ratio (IC50 of the standard peptide / IC50 of the test peptide) of 0.017.

biological target: HLA-A*0201 (human); assay: not given; conditions: not given

Point of comparison: ALDGNLVSM (modifications not checked) [HPV16 E1 … (position 539)], relative binding ratio (IC50 of standard peptide / IC50 of test peptide) 0.027. Against it:
- DLLCHEQL (modifications not checked) [HPV18 E7 peptide DLLCHEQL (position 24)] — lower, 0.0001
- FLKSNSQAKI (modifications not checked) [HPV16 E1 392 peptide …] — lower, 0.0011
- LMKFLQGSVI (modifications not checked) [HPV16 E1 490 …] — lower, 0.0003
- EVFEFAFKDL (modifications not checked) [HPV18 E6 peptide … (position 43)] — lower, 0.0009
- GTLGIVCPI (modifications not checked) [HPV16 E7 peptide … (position 85, 9 amino acids)] — lower, 0.021
- TLEQQYNKPL (modifications not checked) [HPV16 E6 peptide … (position 94, 10 amino acids)] — lower, 0.0001
- PLNPAEKLRHL (modifications not checked) [HPV18 E6 peptide … (position 111)] — lower, 0.0001
- VVYRDSIPHA (modifications not checked) [HPV18 E6 peptide … (position 54)] — lower, 0.0003
- KLRSTAAAL (modifications not checked) [HPV16 E1 311 …] — lower, 0.0003
- FVNSKSHFWL (modifications not checked) [HPV16 E1 501 peptide …] — lower, 0.0015
- LLQQYCLYL (modifications not checked) [HPV16 E1 254 …] — higher, 0.1
- FAFKDLFVV (modifications not checked) [HPV18 E6 peptide … (position 47)] — higher, 0.085
- ELSQMVQWA (modifications not checked) [HPV16 E1 356 peptide …] — lower, 0.0003
- DIRTLEDLL (modifications not checked) [HPV16 E7 peptide … (position 75, 9 amino acids)] — lower, 0.0003
- ALYWYKTGI (modifications not checked) [HPV16 E1 … (position 318)] — lower, 0.0019
- VMGDTPEWI (modifications not checked) [HPV18 E1 339 peptide … (SEQ ID NO: 3614)] — lower, 0.007
- GLYNLLIRCL (modifications not checked) [HPV18 E6 peptide … (position 97)] — lower, 0.0036
- CLYLHIQSL (modifications not checked) — higher, 0.076
- CLYLHIQSLA (modifications not checked) — lower, 0.0032
- QLCTELQTTI (modifications not checked) [HPV16 E6 peptide … (position 21, 10 amino acids)] — lower, 0.0012
- ALKRFLQGI (modifications not checked) [HPV16 E1 … (position 459)] — lower, 0.0062

Point of comparison: SLACSWGMV (modifications not checked), relative binding ratio (IC50 of standard peptide / IC50 of test peptide) (ratio to standard peptide) 0.082. Against it:
- ALYWYRTGI (modifications not checked) [HPV18 E1 325 peptide …] — lower, 0.0032
- QLKCPPLLI (modifications not checked) [HPV16 E1 556 …] — lower, 0.0049
- FLKSNSQAKI (modifications not checked) [HPV31 E1 372 peptide … (SEQ ID NO: 4704)] — lower, 0.0011
- PVDLLCHEQL (modifications not checked) [HPV18 E7 peptide … (position 22, 10 amino acids)] — lower, 0.0001
- ALDGNPISI (modifications not checked) [HPV18 E1 546 peptide …] — lower, 0.021
- FLKSNSQAKI (modifications not checked) [HPV33 E1 peptide … (position 385, 10 amino acids)] — lower, 0.0011
- SLACSWGMVV (modifications not checked) — higher, 0.13
- SLMKFLQGSV (modifications not checked) [HPV16 E1 489 …] — lower, 0.025
- QLFLNTLSFV (modifications not checked) [HPV18 E7 peptide … (position 88, 10 amino acids as printed)] — higher, 0.11
- TLSFVCPWCA (modifications not checked) [HPV45 E7 peptide … (position 94, 10 amino acids)] — lower, 0.0027
- TLLQQYCLYL (modifications not checked) [HPV16 E1 253 …] — higher, 0.65
- TLSFVCPWCA (modifications not checked) [HPV18 E7 peptide … (position 93, 10 amino acids)] — lower, 0.0027
- KLRSTAAAL (modifications not checked) [HPV31 E1 peptide … (position 291, 9 amino acids)] — lower, 0.0003

Point of comparison: ILECVYCKQQL (modifications not checked) [HPV16 E6 34 …], binding affinity ratio (IC50 of standard peptide / IC50 of test peptide) 0.0004. Against it:
- FAFRDLCIV (modifications not checked) [HPV16 E6 52 …] — higher, 0.051

Point of comparison: CVYCKTVL (modifications not checked) [HPV18 E6 32 CVYCKTVL], binding affinity ratio (IC50 of the standard peptide / IC50 of the test peptide) 0.0002. Against it:
- CVYCKTVLEL (modifications not checked) [HPV18 E6 32 …] — lower, 0.0001
- FLGALKSFL (modifications not checked) [HPV18 E1 peptide … (position 463, 9 amino acids)] — higher, 0.045
- FVNSTSHFWL (modifications not checked) [HPV18 E1 peptide … (position 508, 10 amino acids)] — higher, 0.062
- FILYAHIQCL (modifications not checked) [HPV18 E1 peptide … (position 265, 10 amino acids)] — higher, 0.032
- FLRYQQIEFI (modifications not checked) [HPV18 E1 peptide … (position 452, 10 amino acids)] — higher, 0.0025
- EITCVYCKTV (modifications not checked) — the same, 0.0002

same assay, conditions: remark: other sources report otherwise

Binder EITCVYCKT (modifications not checked) has a binding affinity ratio (IC50 of the standard peptide / IC50 of the test peptide) of 0.0001.

Point of comparison: QLCTELQTT (modifications not checked) [HPV16 E6 peptide … (position 21, 9 amino acids)], relative binding ratio (IC50 of standard peptide / IC50 of test peptide) 0.0001. Against it:
- KLPDLCTEL (modifications not checked) [HPV18 E6 peptide … (position 13)] — higher, 0.0035
- KLPDLCTEL (modifications not checked) [HPV45 E6 peptide … (position 13, 9 amino acids)] — higher, 0.0035
- ELTEVFEFA (modifications not checked) [HPV18 E6 peptide … (position 40)] — higher, 0.0012
